Measured values as given in patent publication US20130310310A1.

Columns and labels:
GLP-1 receptor [1] = biological target: GLP-1 receptor
GLP-1 receptor [2] = biological target: GLP-1 receptor; remark: listed apart in the source

| Substance | EC50 (nM), GLP-1 receptor agonistic activity (CRE-luciferase reporter in HEK293 cells) (GLP-1 receptor [1]) | EC50, GLP-1 receptor agonistic activity (CRE-luciferase reporter in HEK293 cells) (GLP-1 receptor [2]) |
| --- | --- | --- |
| [Cys^21(mPEG5000-MAL)] Exendin-4 (peptide) | 22.5 nM |  |
| Exendin-4 (peptide) |  | 0.00193 µM |
